US20090220527A1 (MEDLMMUNE, published 2009)

Experiments:
[1] = target: T1, human EphA2 (form used in the affinity measurements not stated) (human, UniProt P29317 24-534, limits assumed); assay: surface plasmon resonance (BIAcore 3000), purified scFv
T1 construct: The only EphA2 reagent it describes is human EphA2-Fc
Protocol: 2A4, 2E7 and 12E2 as well as parental EA2 scFv and humanized 4H5 scFv were induced for expression in E. coli in a 1 L culture volume. The supernatants containing soluble, secreted scFv fragments were spun to remove cellular debris then passed over an anti-FLAG column (Sigma) to purify and isolate the variant proteins. The purified affinity optimized variants were analyzed by surface plasmon resonance detection using a BIAcore 3000 instrument (Pharmacia Biosensor, Uppsala, Sweden). […] (see FIG. 5).

[2] = target: T1, human EphA2 (form used in the affinity …); assay: method not stated; humanized clone from framework shuffling, reference chimeric Fab EA2

T1 sequence (P29317 24-534 limits assumed): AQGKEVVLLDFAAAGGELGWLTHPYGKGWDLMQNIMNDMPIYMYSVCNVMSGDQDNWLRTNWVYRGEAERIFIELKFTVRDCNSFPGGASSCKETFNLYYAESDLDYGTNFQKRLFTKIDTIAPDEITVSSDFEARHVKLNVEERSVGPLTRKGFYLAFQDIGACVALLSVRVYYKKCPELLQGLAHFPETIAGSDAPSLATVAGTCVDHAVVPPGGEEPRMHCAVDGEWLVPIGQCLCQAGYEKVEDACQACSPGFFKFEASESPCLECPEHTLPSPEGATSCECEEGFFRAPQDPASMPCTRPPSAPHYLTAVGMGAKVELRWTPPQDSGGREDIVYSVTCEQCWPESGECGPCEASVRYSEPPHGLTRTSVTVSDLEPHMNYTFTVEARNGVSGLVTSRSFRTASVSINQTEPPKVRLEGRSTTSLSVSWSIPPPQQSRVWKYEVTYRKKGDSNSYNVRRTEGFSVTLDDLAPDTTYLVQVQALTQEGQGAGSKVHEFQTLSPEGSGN

| Kd [1] [nM] | kon [1] [M⁻¹ s⁻¹] | fold increase of affinity against chimeric Fab EA2 [2] [fold] | Binder |
| --- | --- | --- | --- |
| 5.6 | 652000 |  | 2A4 scFv (affinity optimized combinatorial variant of humanized 4H5) (scFv) scFv: QVQLLESGGGLVQPGGSLRLSCAASGFTFSSYTMSWVRQAPGQALEWMGTISSRGTYTYYPDSVKGRFTISRDNAKNSLYLQMNSLRAEDTAVYYCAREAIFTHWGRGTLVTVSSGGGGSGGGGSGGGGSDIQLTQSPSSLSASVGDRVTITCKASQDINNYHSWYQQKPGQAPRLLIYRANRLVDGVPDRFSGSGYGTDFTLTINNIESEDAAYYFCLKYNVFPYTFGQGTKVEIK |
|  | 518000 |  | 12E2 scFv (affinity optimized combinatorial variant of humanized 4H5) (scFv) scFv: QVQLLESGGGLVQPGGSLRLSCAASGFTFSSYTMSWVRQAPGQALEWMGTISSRGTYTYYPDSVKGRFTISRDNAKNSLYLQMNSLRAEDTAVYYCAREAIFTYWGRGTLVTVSSGGGGSGGGGSGGGGSDIQLTQSPSSLSASVGDRVTITCKASQDINNYLSWYQQKPGQAPRLLIYRANRLFDGVPDRFSGSGYGTDFTLTINNIESEDAAYYFCLKYDRFPYTFGQGTKVEIK |
|  | 563000 |  | 2E7 scFv (affinity optimized combinatorial variant of humanized 4H5) (scFv) scFv: QVQLLESGGGLVQPGGSLRLSCAASGFTFSSYTMSWVRQAPGQALEWMGTISSRGTYTYYPDSVKGRFTISRDNAKNSLYLQMNSLRAEDTAVYYCAREAIFTHWGRGTLVTVSSGGGGSGGGGSGGGGSDIQLTQSPSSLSASVGDRVTITCKASQDINNYGSWYQQKPGQAPRLLIYRANRLVDGVPDRFSGSGYGTDFTLTINNIESEDAAYYFCLKYNRFPYTFGQGTKVEIK |
|  |  | ~20 | humanized clone 4H5 (from framework shuffling of murine mAb EA2; format in this comparison not stated) (antibody, V domains shown, Compared with chimeric Fab EA2; also called humanized Mab 4H5) VH: QVQLLESGGGLVQPGGSLRLSCAASGFTFSSYTMSWVRQAPGQALEWMGTISSGGTYTYYPDSVKGRFTISRDNAKNSLYLQMNSLRAEDTAVYYCAREAIFTYWGRGTLVTVSS VL: DIQLTQSPSSLSASVGDRVTITCKASQDINNYLSWYQQKPGQAPRLLIYRANRLVDGVPDRFSGSGYGTDFTLTINNIESEDAAYYFCLKYDVFPYTFGQGTKVEIK |
